Molecular target: T1, cytoplasmic domain of Bacillus subtilis anti-sigma RsiW (residues 1-80), reduced, zinc-bound (B. subtilis 168 strain, UniProt Q45588 1-80)
T1 construct: RsiW, anti-sigma-W factor of Bacillus subtilis 168, cytoplasmic domain, residues 1-80; Coordinates one zinc ion through C3, H30, C34 and C37 (CHCC motif); The Hisx6-thioredoxin tag was removed with TEV protease after the first IMAC step; also called RsiW_(cyto); RsiWcyto; not shown: His6, N-terminal, cleaved; thioredoxin, N-terminal, cleaved
T1 sequence (looked up): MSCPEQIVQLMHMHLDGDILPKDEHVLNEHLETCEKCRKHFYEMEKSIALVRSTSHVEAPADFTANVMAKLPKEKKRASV
Experiment: SEC-MALS; purified SigW/RsiWcyto complex injected into a Superdex200 analytical column with inline DAWN HELEOS MALLS and Optilab rEX refractive index detectors; molecular weight of the complex approximately 31.5 kDa
Conditions: both partners purified

B1: Bacillus subtilis SigW (residues 1-187) (natural protein, B. subtilis 168 strain, UniProt Q45585 1-187, looked up)
chain: MEMMIKKRIKQVKKGDQDAFADIVDIYKDKIYQLCYRMLGNVHEAEDIAQEAFIRAYVNIDSFDINRKFSTWLYRIATNLTIDRIRKKKPDYYLDAEVAGTEGLTMYSQIVADGVLPEDAVVSLELSNTIQQKILKLPDKYRTVIVLKYIDELSLIEIGEILNIPVGTVKTRIHRGREALRKQLRDL
notes: SigW, ECF (group IV) sigma factor of Bacillus subtilis 168, residues 1-187; domains sigmaW2 (residues 3-95) and sigmaW4 (residues 125-187) joined by a disordered loop (96-125); No tag on SigW itself (cloned in MCS2 of pET-DUET1); it is purified through the His-tagged RsiWcyto; A selenomethionine-labelled complex (E. coli B834 (DE3)) was used for phasing only; also called sigma factor SigW; ECF …
  stoichiometry N: 1 SigW per RsiWcyto
